Reference: patent publication US6200577A, “Anti-herpesviral agents and assays therefor” (priority 1996, dated 2001)

Biological target: T1, gB/VP22trunc binding (Human herpesvirus 1, UniProt P10211)
T1 construct: linked residues 798 to 904 of gB to the glutathione-S-transferase (GST) protein expressed by pGex2TNMCR; made in house; host or cells: GST-gB: E. coli DH5alpha; VP22trunc: E. coli BL21(DE3)
Test: Far Western analysis of peptide inhibition of GST-gB binding to VP22trunc
Set-up: species or system HSV-1
Conditions: peptide 250 μg/ml co-incubated with GST-gB 1.2 μg/ml; FIG. 12B
Procedure: (B) Inhibition of binding of GST-gB (final concentration 1.2 μg/ml)and each of the following peptides at a final concentration of 250 μg/ml: lane 1, no peptide; lane 2, peptide A; lane 3, peptide B; lane 4, peptide C; lane 5, peptide D; lane 6, peptide E; lane 7, peptide F; lane 8, peptide G; lane 9, peptide H; lane 10, peptide I; lane 11, peptide J. Bound GST-gB was detected with anti-GST antibody.
Following electrophoresis, proteins were electrotransferred to either Hybond or ProBlott (Applied Biosystems) membrane and the membrane was incubated in renaturation buffer (50 mM Tris-HCl, pH 8.0, 150 mM NaCl, 10% glycerol, 1 mM DTT) at 4° C. for 5-6 hours.
For membranes probed with GST-gB, blocking was performed overnight in PBSA containing 1% non-fat dried milk and 0.05% Tween 20 at 4° C. Membranes were then washed twice in renaturation buffer (10 min/wash) prior to incubation with fusion protein (final concentration 0.5 μg/ml) in renaturation buffer containing 1% BSA. Incubation was again performed overnight at 4° C. Following washing with renaturation buffer (four times, 10 minutes/wash) and a brief rinse with blocking buffer, the membrane was incubated with anti-GST antibody in PBSA, 1% non-fat dried milk, 0.05% Tween 20 and 1% BSA for 1 hour at ambient temperature. After four washes with PBSA, 0.05% Tween 20 (10 minutes/wash), bound antibody was detected with secondary antibody (goat anti-rabbit IgG, whole molecule; Sigma) conjugated to Horse Radish Peroxidase (HRP) by incubating at room temperature for 45 minutes. Following four further washes with PBSA, 0.05% Tween 20, the secondary antibody was visualised by enhanced chemiluminescence.
Similar to the studies performed with inhibition of binding of VP16 to VP22, peptides A to J, which span residues 18 to 144 of VP22trunc, were used to examine whether gB binding could also be prevented (FIG. 12B).

T1 sequence (P10211 798-904): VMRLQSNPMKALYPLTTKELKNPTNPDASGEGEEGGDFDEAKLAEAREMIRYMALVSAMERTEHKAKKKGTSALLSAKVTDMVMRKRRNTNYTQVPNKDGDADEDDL

Sequence	Inhibition of GST-gB binding to VP22trunc (Far Western)
CAAVGRLAAMHARMAAVQLW [Peptide E]	completely inhibited binding of gB
TPRVAGFNKRVFCAAVGRLA [Peptide D]	completely inhibited binding of gB
